Settings: Escherichia coli (strain K12); pH 9; Thermal; DSC; Glycine 50mM; reversible: yes; whole UniProt chain shown

B1: Divalent-cation tolerance protein CutA wild type, P69488 (protein)
chain: MLDEKSSNTASVVVLCTAPDEATAQDLAAKVLAEKLAACATLIPGATSLYYWEGKLEQEYEVQMILKTTVSHQQALLECLKSHHPYQTPELLVLPVTHGDTDYLSWLNASLR
Tm: 85.6 °C
unfolding enthalpy (calorimetric): 208 kcal/mol
